Data from patent US20060183161A1.

Target: IL-1 receptors on fibroblasts (human) (UniProt P14778)
Experiment: cell-based or functional assay

Chain of UniProt P14778 (P14778 18-569): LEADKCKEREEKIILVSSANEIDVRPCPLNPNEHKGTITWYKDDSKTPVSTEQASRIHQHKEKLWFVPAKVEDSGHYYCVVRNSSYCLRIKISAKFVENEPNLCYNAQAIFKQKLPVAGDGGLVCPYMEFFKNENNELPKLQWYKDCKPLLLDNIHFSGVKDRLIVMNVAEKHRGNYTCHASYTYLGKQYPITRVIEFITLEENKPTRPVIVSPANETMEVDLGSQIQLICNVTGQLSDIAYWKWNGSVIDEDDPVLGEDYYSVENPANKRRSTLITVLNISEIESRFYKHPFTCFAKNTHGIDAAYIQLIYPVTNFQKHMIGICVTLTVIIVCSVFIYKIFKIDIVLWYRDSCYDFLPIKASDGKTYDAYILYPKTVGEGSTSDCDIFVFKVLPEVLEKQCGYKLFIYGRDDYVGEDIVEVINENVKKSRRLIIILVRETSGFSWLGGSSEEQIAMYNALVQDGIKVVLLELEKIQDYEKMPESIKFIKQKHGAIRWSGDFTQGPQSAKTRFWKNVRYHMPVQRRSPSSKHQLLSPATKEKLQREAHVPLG

IL-1-like activity: IL-6 secretion by fibroblasts and endothelial cells (ELISA) (% of the activity of 0.1 nM IL-1b)	IL-6 production from fibroblasts in response to 0.1 nM IL-1b (ELISA) [% reduction]	Substance
< 1		rhIL-1L1 Form B (from UniProt Q9UBH0 1-155) (ligand)
	95	recombinant human IL-1 receptor antagonist (rhIL-1ra) (from UniProt P18510 28-177) (ligand)
